# Laboratory results as given in paper PMC2756588.
# T1: Abp1, P15891
# T1 sequence (P15891 535-592, looked up): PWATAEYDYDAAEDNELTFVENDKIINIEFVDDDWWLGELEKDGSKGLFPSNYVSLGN
# T2: Myo5, Q04439
# T2 sequence (Q04439 1072-1160, looked up): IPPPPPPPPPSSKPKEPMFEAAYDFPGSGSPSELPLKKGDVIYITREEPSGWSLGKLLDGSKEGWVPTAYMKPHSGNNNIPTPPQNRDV
# T3: Cdc25, P04821
# T3 sequence (P04821 50-136, looked up): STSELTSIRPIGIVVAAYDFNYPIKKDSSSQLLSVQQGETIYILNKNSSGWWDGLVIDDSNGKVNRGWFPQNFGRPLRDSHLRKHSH
# T4: Sla1-2, P32790
# T4 sequence (P32790 60-140, looked up): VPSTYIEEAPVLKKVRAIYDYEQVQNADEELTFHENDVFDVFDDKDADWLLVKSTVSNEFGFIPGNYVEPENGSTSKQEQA
# T5: Pex13, P80667
# T5 sequence (P80667 295-386, looked up): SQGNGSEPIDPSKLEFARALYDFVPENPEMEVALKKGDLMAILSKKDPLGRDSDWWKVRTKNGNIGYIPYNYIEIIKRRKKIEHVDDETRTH
# T6: Bbc1, P47068
# T6 sequence (P47068 1-78, looked up): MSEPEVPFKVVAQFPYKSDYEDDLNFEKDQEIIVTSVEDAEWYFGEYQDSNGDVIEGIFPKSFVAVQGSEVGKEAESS
# T7: Hse1, P38753
# T7 sequence (P38753 208-285, looked up): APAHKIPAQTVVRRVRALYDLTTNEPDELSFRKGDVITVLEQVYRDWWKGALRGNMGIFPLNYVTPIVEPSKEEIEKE
# T8: Nbp2, Q12163
# T8 sequence (Q12163 103-180, looked up): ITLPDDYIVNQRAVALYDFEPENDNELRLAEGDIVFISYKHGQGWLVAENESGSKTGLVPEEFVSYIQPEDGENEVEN
# T9: Bud14, P27637
# T9 sequence (P27637 247-328, looked up): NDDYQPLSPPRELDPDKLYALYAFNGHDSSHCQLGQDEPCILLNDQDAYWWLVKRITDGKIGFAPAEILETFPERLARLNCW
# T10: Pin3, Q06449
# T10 sequence (Q06449 53-122, looked up): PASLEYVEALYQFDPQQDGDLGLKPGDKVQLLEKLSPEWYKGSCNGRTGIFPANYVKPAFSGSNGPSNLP
# T11: Hof1, Q05080
# T11 sequence (Q05080 590-669, looked up): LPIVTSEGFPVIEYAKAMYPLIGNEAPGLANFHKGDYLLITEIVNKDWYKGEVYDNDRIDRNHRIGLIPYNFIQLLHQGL
# T12: Sla1-3, P32790
# T12 sequence (P32790 344-424, looked up): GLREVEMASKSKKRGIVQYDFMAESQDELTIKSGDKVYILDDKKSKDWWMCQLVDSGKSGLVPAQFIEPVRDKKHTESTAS
# T13: Fus1, P11710
# T13 sequence (P11710 432-512, looked up): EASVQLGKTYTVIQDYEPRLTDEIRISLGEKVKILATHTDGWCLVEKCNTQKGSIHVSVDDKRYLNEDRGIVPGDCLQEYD
# T14: Lsb1, P53281
# T14 sequence (P53281 45-122, looked up): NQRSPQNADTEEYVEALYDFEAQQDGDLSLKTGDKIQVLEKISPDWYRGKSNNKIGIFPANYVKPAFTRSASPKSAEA
# T15: Lsb3, P43603
# T15 sequence (P43603 385-451, looked up): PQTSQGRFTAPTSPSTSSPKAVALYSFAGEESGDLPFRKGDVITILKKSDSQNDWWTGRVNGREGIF
# T16: Cyk3, Q07533
# T16 sequence (Q07533 1-83, looked up): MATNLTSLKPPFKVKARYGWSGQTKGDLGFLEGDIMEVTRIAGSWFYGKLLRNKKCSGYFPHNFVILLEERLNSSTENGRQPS
# T17: Boi1, P38041
# T17 sequence (P38041 1-86, looked up): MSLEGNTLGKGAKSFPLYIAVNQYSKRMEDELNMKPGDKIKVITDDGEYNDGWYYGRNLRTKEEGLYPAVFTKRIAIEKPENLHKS
# T18: Lsb4, P32793
# T18 sequence (P32793 402-468, looked up): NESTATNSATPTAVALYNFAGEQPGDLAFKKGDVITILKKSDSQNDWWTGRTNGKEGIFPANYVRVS
# T19: Bzz1-2, P38822
# T19 sequence (P38822 568-633, looked up): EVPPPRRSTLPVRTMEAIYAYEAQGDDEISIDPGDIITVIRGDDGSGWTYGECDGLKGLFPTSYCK
# T20: Bzz1-1, P38822
# T20 sequence (P38822 478-572, looked up): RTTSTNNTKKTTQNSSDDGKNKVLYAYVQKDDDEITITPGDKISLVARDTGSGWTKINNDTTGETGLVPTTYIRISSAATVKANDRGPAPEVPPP
# T21: Boi2, P39969
# T21 sequence (P39969 32-116, looked up): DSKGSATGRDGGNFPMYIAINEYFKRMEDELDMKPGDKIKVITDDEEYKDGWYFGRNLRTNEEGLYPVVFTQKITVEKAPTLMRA
# Biological target: T1, Abp1, P15891
# Experiment: SPOT array
# Conditions: median of control spots 935
row,SPOT intensity,Binder
1,239,AAHKTKPSIPPKKVE
2,7,QTREPNEPPPPSPAM
3,161,KKEKKPPKIPKKVYT

# Biological target: Sho1, P40073
# Sequence (P40073 287-367): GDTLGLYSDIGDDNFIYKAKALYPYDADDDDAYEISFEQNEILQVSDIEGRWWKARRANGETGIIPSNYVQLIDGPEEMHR
# Experiment: SPOT array
# Conditions: median of control spots 1148
row,SPOT intensity,Binder
1,4,AAHKTKPSIPPKKVE
2,0,QTREPNEPPPPSPAM
3,16,KKEKKPPKIPKKVYT

# Biological target: T2, Myo5, Q04439
# Experiment: SPOT array
# Conditions: median of control spots 471
row,SPOT intensity,Binder
1,0,AAHKTKPSIPPKKVE
2,515,QTREPNEPPPPSPAM
3,0,KKEKKPPKIPKKVYT

# Biological target: T3, Cdc25, P04821
# Experiment: SPOT array
# Conditions: median of control spots 969
row,SPOT intensity,Binder
1,0,AAHKTKPSIPPKKVE
2,0,QTREPNEPPPPSPAM
3,3,KKEKKPPKIPKKVYT

# Biological target: T4, Sla1-2, P32790
# Experiment: SPOT array
# Conditions: median of control spots 712
row,SPOT intensity,Binder
1,0,AAHKTKPSIPPKKVE
2,0,QTREPNEPPPPSPAM
3,0,KKEKKPPKIPKKVYT

# Biological target: T5, Pex13, P80667
# Experiment: SPOT array
# Conditions: median of control spots 1341
row,SPOT intensity,Binder
1,2,AAHKTKPSIPPKKVE
2,7,QTREPNEPPPPSPAM
3,0,KKEKKPPKIPKKVYT

# Biological target: T6, Bbc1, P47068
# Experiment: SPOT array
# Conditions: median of control spots 796
row,SPOT intensity,Binder
1,0,AAHKTKPSIPPKKVE
2,0,QTREPNEPPPPSPAM
3,0,KKEKKPPKIPKKVYT

# Biological target: T7, Hse1, P38753
# Experiment: SPOT array
# Conditions: median of control spots 1727
row,SPOT intensity,Binder
1,0,AAHKTKPSIPPKKVE
2,0,QTREPNEPPPPSPAM
3,12,KKEKKPPKIPKKVYT

# Biological target: GST
# Experiment: SPOT array
# Conditions: median of control spots 978
row,SPOT intensity,Binder
1,0,AAHKTKPSIPPKKVE
2,0,QTREPNEPPPPSPAM
3,3,KKEKKPPKIPKKVYT

# Biological target: T8, Nbp2, Q12163
# Experiment: SPOT array
# Conditions: median of control spots 357
row,SPOT intensity,Binder
1,0,AAHKTKPSIPPKKVE
2,0,QTREPNEPPPPSPAM
3,0,KKEKKPPKIPKKVYT

# Biological target: T9, Bud14, P27637
# Experiment: SPOT array
# Conditions: median of control spots 956
row,SPOT intensity,Binder
1,0,AAHKTKPSIPPKKVE
2,0,QTREPNEPPPPSPAM
3,0,KKEKKPPKIPKKVYT

# Biological target: T10, Pin3, Q06449
# Experiment: SPOT array
# Conditions: median of control spots 2171
row,SPOT intensity,Binder
1,0,AAHKTKPSIPPKKVE
2,21,QTREPNEPPPPSPAM
3,1,KKEKKPPKIPKKVYT

# Biological target: Bem1-2, P29366
# Sequence (P29366 139-227): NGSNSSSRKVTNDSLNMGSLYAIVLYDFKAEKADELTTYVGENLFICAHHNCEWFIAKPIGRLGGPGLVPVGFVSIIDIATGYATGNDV
# Experiment: SPOT array
# Conditions: median of control spots 4347
row,SPOT intensity,Binder
1,0,AAHKTKPSIPPKKVE
2,0,QTREPNEPPPPSPAM
3,4,KKEKKPPKIPKKVYT

# Biological target: T11, Hof1, Q05080
# Experiment: SPOT array
# Conditions: median of control spots 4086
row,SPOT intensity,Binder
1,0,AAHKTKPSIPPKKVE
2,0,QTREPNEPPPPSPAM
3,4,KKEKKPPKIPKKVYT

# Biological target: T12, Sla1-3, P32790
# Experiment: SPOT array
# Conditions: median of control spots 5475
row,SPOT intensity,Binder
1,0,AAHKTKPSIPPKKVE
2,0,QTREPNEPPPPSPAM
3,12,KKEKKPPKIPKKVYT

# Biological target: Rvs167, P39743
# Sequence (P39743 419-482): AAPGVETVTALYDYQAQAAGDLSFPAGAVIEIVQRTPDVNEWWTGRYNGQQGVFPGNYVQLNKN
# Experiment: SPOT array
# Conditions: median of control spots 2707
row,SPOT intensity,Binder
1,0,AAHKTKPSIPPKKVE
2,4,QTREPNEPPPPSPAM
3,0,KKEKKPPKIPKKVYT

# Biological target: T13, Fus1, P11710
# Experiment: SPOT array
# Conditions: median of control spots 1200
row,SPOT intensity,Binder
1,1,AAHKTKPSIPPKKVE
2,0,QTREPNEPPPPSPAM
3,3,KKEKKPPKIPKKVYT

# Biological target: T14, Lsb1, P53281
# Experiment: SPOT array
# Conditions: median of control spots 388
row,SPOT intensity,Binder
1,0,AAHKTKPSIPPKKVE
2,0,QTREPNEPPPPSPAM
3,0,KKEKKPPKIPKKVYT

# Biological target: T15, Lsb3, P43603
# Experiment: SPOT array
# Conditions: median of control spots 406
row,SPOT intensity,Binder
1,0,AAHKTKPSIPPKKVE
2,2,QTREPNEPPPPSPAM
3,0,KKEKKPPKIPKKVYT

# Biological target: T16, Cyk3, Q07533
# Experiment: SPOT array
# Conditions: median of control spots 1451
row,SPOT intensity,Binder
1,0,AAHKTKPSIPPKKVE
2,1,QTREPNEPPPPSPAM
3,1,KKEKKPPKIPKKVYT

# Biological target: T17, Boi1, P38041
# Experiment: SPOT array
# Conditions: median of control spots 1162
row,SPOT intensity,Binder
1,0,AAHKTKPSIPPKKVE
2,0,QTREPNEPPPPSPAM
3,0,KKEKKPPKIPKKVYT

# Biological target: T18, Lsb4, P32793
# Experiment: SPOT array
# Conditions: median of control spots 397
row,SPOT intensity,Binder
1,0,AAHKTKPSIPPKKVE
2,13,QTREPNEPPPPSPAM
3,0,KKEKKPPKIPKKVYT

# Biological target: Myo3, P36006
# Experiment: SPOT array
# Conditions: median of control spots 468
row,SPOT intensity,Binder
1,0,AAHKTKPSIPPKKVE
2,502,QTREPNEPPPPSPAM
3,0,KKEKKPPKIPKKVYT

# Biological target: Bem1-1, P29366
# Sequence (P29366 55-141): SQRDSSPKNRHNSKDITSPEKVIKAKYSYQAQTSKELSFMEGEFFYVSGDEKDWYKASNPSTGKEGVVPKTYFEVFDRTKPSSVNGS
# Experiment: SPOT array
# Conditions: median of control spots 4282
row,SPOT intensity,Binder
1,0,AAHKTKPSIPPKKVE
2,1,QTREPNEPPPPSPAM
3,1,KKEKKPPKIPKKVYT

# Biological target: T19, Bzz1-2, P38822
# Experiment: SPOT array
# Conditions: median of control spots 4538
row,SPOT intensity,Binder
1,0,AAHKTKPSIPPKKVE
2,0,QTREPNEPPPPSPAM
3,18,KKEKKPPKIPKKVYT

# Biological target: T20, Bzz1-1, P38822
# Experiment: SPOT array
# Conditions: median of control spots 4446
row,SPOT intensity,Binder
1,0,AAHKTKPSIPPKKVE
2,0,QTREPNEPPPPSPAM
3,0,KKEKKPPKIPKKVYT

# Biological target: T21, Boi2, P39969
# Experiment: SPOT array
# Conditions: median of control spots 1161
row,SPOT intensity,Binder
1,1,AAHKTKPSIPPKKVE
2,3,QTREPNEPPPPSPAM
3,3,KKEKKPPKIPKKVYT
